Experimental data published in the nanobody polyreactivity screen of Harvey et al. (2022).

Assay: yeast display, Sf9 membrane polyspecificity reagent, FACS + sequencing; frameworks hold sequencing errors
How it was run: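 After 36–48 hours of galactose induction, yeast (Saccharomyces cerevisiae BJ5465) displaying a synthetic nanobody library were stained at 4 °C for 1 hour with 10% biotinylated, detergent-solubilized Sf9 membrane reagent. Streptavidin microbeads enriched the stained cells before FACS sorting into low and high (top ~1%) gates on anti-HA and streptavidin fluorescence. Each clone's polyreactivity label reflects its gate of origin.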

| Sequence | polyreactivity (PSR sort gate) |
| --- | --- |
| QVQLVESGGGLVQAGGSLRLSCAASGITLLYYAMGWYRQAPGKERELVAAISRRGGSTYYADSVKGRFTISRDNAKNTVYLQMNSLKPEDTAVYYCAAYSPYGGYHYLYDYWGQGTEVTVSS | high polyreactivity |
| QVQLVESGGGLVQAGGSLRLSCAASGFTFFEDNAMGWYRQAPGKERELVAAITSGGSTNYADSVKGRFTISRDNAKNTVYLQMISLKPEDTAVYYCAKDRVPLKTRFYYFPWGYDYWGQGTQVTVSS | low polyreactivity |
| QVQLVESGGGLVQAGGSLRLSCAASGFIQDYYAMGWYRHAPGKERELDAAISSGGTDTYYADSVKGRFTVSRDTAKNTVYLQMNSLKPEDTAVYYFAADSYWSAYDYWGQGTQVTVSS | low polyreactivity |
| QVQLVESGGGLVQAGGSLRLSCAASGRIFGYTMGWYRQAPGKERELVAAISKSGGSTYYADSVKGRFTISRDNAMNTVYLQMNSLKPEDTAVYYCNKPQRILYDYWGQGTQVTVSS | high polyreactivity |
| QVQLVESGGGLVQAGGSFRLSCAASGSIFDGYAMGWYRQAPGKERELVAAISSGGDSTYYADSVKGRFTISRDNAKNTVYLQMNSLKPEDTAVYYCNADSLVGHSYDYWGQGTQVTVSS | low polyreactivity |
| QVQLVESGGGLVQAGGSLRLSCAAYGSIFHVYAMGWYRQAPGKERELVAAIDRSGGSTYYADSVKGRFTISRDNAKNTVYLQMNSLKPEDTSVYYCAKDVLGGQITDGVGNDYWGQGTQVTLSS | low polyreactivity |
| QVQLVESGGGLVQAGGSLRLSCAASGRTFVTYAMGWYRQAPGKEREFVAAITWSTGTSTYYADSVKGRFTISRDNAKNTVYLQMNSLKPEDTAVYYCAVDIWWPTWYYIYWGQGTQVTVSS | low polyreactivity |
| QVQLVESGGGLVQAGGSLRLSCAASGSIFYNYSMGWYRQAPGKERELVATITRSDGSTYYADSVKGRFTISRDNAKNTVYLQMNSLKPEDTAVYYCNADSLWDRAFGYYYWGQGTQVTVSS | low polyreactivity |
| QVQLVESGGGLVQAGGSLRLSSAASGRTFEGYAMGWYRQAPGKERELVAAISGSSGSTYYADSVKGRFTISRDNAKNTVYLQMNSLKPEDTAVYYCNADYDWPGGSDYWGQGTQVTVSS | low polyreactivity |
| QVHLVESGGGLVQAGGSLRLSSAASGSIFDSNAMGWYRQAPGKERELVAAINSTDITKYADSVKGRFTISRDNAKNTVYLQMNSLKPEDTAVYYCAKDQSLTYSSLWGYDYWGQGTQVTVSS | low polyreactivity |
| QVQLVESGGGLVQAGGSLRLSCAASGSIFYRYAMGWYRQAPGKERELVAAIRSRTGRTYYADSVKGRFTISRDNAKNTVYLQMNCLNPEDTAVYYCAADKYFSARFDYWGQGTQVTVSS | high polyreactivity |
| QVQLVESGGGLVQAGGSLRISCAASGFTFPSNAMGWYRQAPGKERELVAAITGGGRTYYADSVKGRFTISRDNAKNTVFFQMNSLKPEDTAVYYCNRPTRVHLTHYDYCGQGTQVTVSS | high polyreactivity |
| QVQLVESGGGLVQAGCSLRLSCAASGSIYPYAMGWYRQAPGKERELVDAISFSDDRTYYADSVKGRFTISRDIAKNNVYVQMNSLKPEDTAFYYCDAYYFSADEYEYVYWGQGTQVTLSS | high polyreactivity |
| QVQLVESGGGLVQAGGSLRLSCAASGSTFYYYAMGWYRPAPGKEREFVASISSRGTSTYYADSVKGRFTISRDNAKNTVYIQMISLKPEDTAVDYGAARVWGPTRAYDYWGQGTQVTVSS | high polyreactivity |
| QVQLVESGGGLVQAGGSLRLSCAASGFIFTRNRMGWYRHAPGKETELVAAISSGGRTYYADSVKGRFTISRDNAMNTVYLQMNSLIPEDTAVYYCNAGNRGVYRYDYWGQGTQVNVSS | high polyreactivity |
| QVQLVESGGGLVQSGGSLRLSCAASGCIFSKNAMGWYRPAPGKERELVAAISWSGGSTSYADSVKGRFTISRDNAKNTVYLQMNSLKPEDTAVYYCARVGAIPSRYGYWGQGTQVTVSS | high polyreactivity |

| Sequence | polyreactivity (PSR sort gate) |
| --- | --- |
| QVQLVESGGGLVQAGGSIRLSCAASGITFTLYAMGWYRQAPGKEMELVAAITISAGSTYYADSVKGRFTISRDNAKNTVYLQINSLKPEDTAVYYCAAESYGSWYYYWGQGTQVTVSS | high polyreactivity |
| QVQLVESGGGLVQAGGSLSLSCAASGSIFWSYAMGWYRQAPGKERELVAAITTDGGTNYADSVKGRFTISRDNAKNTVYLQMNSLKPVDTAVYYCAADTDPKPRIDYTLRMDYWGHGTQVTVSS | low polyreactivity |
| QVQLVESGGGLVQAGGSLRLSCAASGFTVEKNAMGWYRPAPGNERELVAAITKSGGSTYYADSVKGRFTISRDNAKNTVYLQMNSLKPEDTAVYFCNAPPWSRYYYDLLRHDYWGQGTQVTVSS | low polyreactivity |
| QVQLVESGGGLVQAGGSLRLSCAASGLIFPSYVMGWYRLAPGKERELVAGITIGDRTYYADSVKGRFTISRDNAKNTVYLQMNSLKPEDTAVYYCAAVYTYAGRRFGYWGQGTQVTVSS | high polyreactivity |
| QVQLVESGGGLVQAGGSLRLSCAASGFTFGWYAMGWDIQAPGKERELLATISWSGSSTYYADSVKGLFTISRDNAKNTVYLQMNSLKPEDTAVYYCNAVYGGFVVLRYDYWGQGTQVTVSS | high polyreactivity |
| QVQLVESGGGLVQAGGSLRLSCAASGIIFRYYAMGWYRQAPGKEREFVADISASDGSTYYADSVKGRFTISRDNAKNTVYLQMNSQKPEDTAVSYCNARKYWKYGSYQYYWGQGTEVTVSS | high polyreactivity |
| QVQLVESGGGLVQAGGSLRLSCAASGRTFPYYAMGWYRQAPGKERELVARITSGSGTYYADSVKGRFTISRDNAKNTVYLQMNSLKPEDTAVYYCAAREPGVGYVGNYTGLVYWGQGTQVTVSS | low polyreactivity |
| QVQLVESGGGLVQAGGSLRLSCAASGSIFVTNAMGWYRQAPGKERELVAAISVSGGSTYYADSVKGRFTISRDNAKNTVYLQMNSLKPEDTGVYYCAADGYIGWRHIYEYWGQGTQVTVSS | low polyreactivity |
| QVQLVESGGGLVQAGGSLRLSCAASGSIIPRNVMGWYRQAPGKERDLVAAISSSGGSTSYADSVKGRFTISRDNAKNTVYLQMNSLKPEDTAVYYCNAPWQRYSAPWGQGYNYWGQGTQVTVSS | high polyreactivity |
| QVQLVESGGGLVQAGGSLRLSCAASGFTFKGNAMGWYIQAPGKERELVATITQSAGYTYYADSVKGRFTISRDNAKNTVYLQLNSLKPEDTAVYYCNADPITLYYYSWYNYWGQGTQVTVSS | low polyreactivity |
| QVQLVDSEVGLVQAGGSHRLSCSASARTFGRYAMGWYRQAPGKERELVATIRWRVGSTYYADSVKGSFTISRDNAKNTVYLQMNSLKPEDTAVFYCAARRYSSGLTDDYWGQGTQVTVSS | high polyreactivity |
| QVQLVESGGGLVQAGGSLRLSCAATGSTFFIYAMGWYRQAPGKERELVAAISGSGGTTYYADSVKGRFTISRDNAKNTVYLHMNSLKPEDTAVYYGAARTFSAFWRGGYDYWGQGTQVTVSS | low polyreactivity |
| QVQLVESGGGLVQAGGSLPLSCAASGSIFFFNAMGWYRQATGKEREFVAAITSSSGRTYYADSVKGRFTISRDNANNTVYLQMNSLKPEDSAVYFCAAQVPEDTETVDYWGQGTQVTVSS | low polyreactivity |
| QVQLVESVGGLVQAGGSLRLSCAASGTFKWYAMGWYRQAPGKERELVAVISSSGGTTYYADSVKGRFTISRDNAKNTVYLQMNSLKPEDTAVYYCNKRFRSWTTGSPYDYWGQGTQVTVSS | high polyreactivity |
| QVQLVESGGGLVQSGGSLRLSCAASGRTFRYYAMGWYRQAPGKERELVAAISWNGANTYYADSVKGRFTISRDNAKNTVYLQMNSLKPEDTAVYYCAATYYRWKGYDYWGQGTQVNVSS | high polyreactivity |
| QVQLVESGGGLVQAGGSLGLSCAASGSTFGFYTMGWYRQAPGKERELVATISYSGGDTYYEDSVKGRFTISRDNAKNTVYFQMNSLKPEYTAVYYCAADLGDYVTTYSWLDSWGQGTQVTVSS | low polyreactivity |
